± gives the half width of the 95% confidence interval.
How the values were obtained:
[1] = folding stability dG unfold from trypsin proteolysis; higher = more stable
Method in brief: (§1)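 How resistant each design was to proteolysis was captured as K50, inferred by Bayesian fitting of sequencing counts. Unfolding free energy was then derived relative to a sequence-predicted unfolded-state K50 and a shared folded-state K50, per protease or combined. Digestion used trypsin and chymotrypsin at 11 threefold-diluted concentrations plus a no-protease condition, on mini-proteins under 80 residues without cysteine in a PA-tagged cDNA display construct. Designs were kept only when AlphaFold2 dimer inter-PAE was above 15.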

[2] = folding stability dG unfold (combined trypsin and chymotrypsin); higher = more stable
Method in brief: as §1

[3] = folding stability dG unfold from chymotrypsin proteolysis; higher = more stable
Method in brief: as §1

| Sequence | folding stability dG unfold [1] | folding stability dG unfold [2] | folding stability dG unfold [3] |
| --- | --- | --- | --- |
| SAGGSAAPEDTLVEEEVEIVTEETDPKLGGKKIVTTKVKRLIRYFPEKGELEVETVETETTVYPNESAGGSA [r15_517_JUSTAS] | -0.644 ± 0.47 kcal/mol | 0.111 ± 0.1 kcal/mol | 0.416 ± 0.084 kcal/mol |
| SAGGGMTVTRTIYLPNMTEEEKKALAEEIAEEVREELEKRGYPVKEITVDVKFIPGKGIVIVTVTLKLSAGG [r13_212_JUSTAS] | 3.29 ± 0.09 kcal/mol | 3.52 ± 0.055 kcal/mol | 3.64 ± 0.089 kcal/mol |
| SAGGSAGGSAGGKPKTIRIKVYNEETGEVVTLEFPEGMSLEEVKKLLEALPNLKVVEIEPSAGGSAGGSAGG [r7_624_TrROS_Hall] | 4.79 ± 0.41 kcal/mol | 4.45 ± 0.24 kcal/mol | 3.62 ± 0.11 kcal/mol |
| SAGGSAGGSAGGKTYTAEELRKKLPPGAVIRLKNGKKYEIKEGDKIKKGDKIEIVPKKDLSAGGSAGGSAGG [r7_507_TrROS_Hall] | -0.344 ± 0.32 kcal/mol | 0.18 ± 0.13 kcal/mol | 0.369 ± 0.14 kcal/mol |
| SAGGSAGGSAGGMKILSVEEDAPPDYVTVTELTVDSEGNKKIITTTIPIEPPPEVSPSLISAGGSAGGSAGG [r7_873_JUSTAS] | 1.15 ± 0.039 kcal/mol | 1.24 ± 0.17 kcal/mol | 1.45 ± 0.1 kcal/mol |
| SAGGSAGGSFRIDPEKIEKVKHHRNPNGGGYHTIRLPGGPVKIPFRGMDPGDMEDQVKNFLKNSAGGSAGGS [r12_585_TrROS] | 0.161 ± 0.11 kcal/mol | 0.236 ± 0.14 kcal/mol | 0.267 ± 0.19 kcal/mol |
| SAGGSAGGSMKIVIVVDEDGSVRVRIEETGEEITFPKGMTAEEIAELLKKKFPNLEVEIVEVPSAGGSAGGS [r12_423_TrROS_Hall] | 4.28 ± 0.19 kcal/mol | 3.76 ± 0.24 kcal/mol | 3.09 ± 0.12 kcal/mol |
| SAGGSANTTYIELPTNGMSDEEVKELAEELAKKLGVKLEIKPLPGEGYWVVTFTLPDSTSTIVIPGSAGGSA [r15_168_JUSTAS] | 2.55 ± 0.11 kcal/mol | 2.41 ± 0.11 kcal/mol | 2.37 ± 0.038 kcal/mol |
| SAGGSAKGPKTVTYEFKIKYGDKYYLIKVTVKLHEVKYDPKTKKYTLNLKPNDKLEIKVEIYELDDSAGGSA [r15_1040_TrMRF] | 2.29 ± 0.26 kcal/mol | 3.7 ± 0.3 kcal/mol | 4.09 ± 0.086 kcal/mol |
| SAGGAVLTTEDPEKISLTFYSPEGAVLGSEEIEVEPPEIVLTNVPPEEAAAIKKENPDVPISLNPALGSAGG [r13_235_JUSTAS] | 0.956 ± 0.03 kcal/mol | 0.685 ± 0.071 kcal/mol | 0.456 ± 0.029 kcal/mol |
| SAGGSAGGKPPKPPKKVTITVTITFTLEDGKTVTVTAKITFLPDGTIKIEITYPDGSKLTLTFPSAGGSAGG [r6_109_TrROS_Hall] | 3.75 ± 0.35 kcal/mol | 4.59 ± 0.23 kcal/mol | 4.81 ± 0.18 kcal/mol |
| SAGGMKVYKISFPNATVTYEEETGKVTINPPDGSTKVIEISPDISIEEVAKKLAEELGFTEATITPEPSAGG [r13_852_JUSTAS] | 1.59 ± 0.095 kcal/mol | 1.48 ± 0.068 kcal/mol | 1.36 ± 0.057 kcal/mol |
| MVVTVETTMIDPEGNPLTKTFTVPSSVVEALKEAGKPLTKEELEKLVKEKVEAEAKKYNVSVEVTLVSFERS [r1_174_JUSTAS] | 2.21 ± 0.17 kcal/mol | 2.6 ± 0.27 kcal/mol | 2.7 ± 0.066 kcal/mol |
| SAGGSAGGSKKVYLKVTVYHKNGKKTTLEIGPITDEDGKPIETYAKELAEHPDVEKVEVEVLGSAGGSAGGS [r12_199_TrMRF] | 3.79 ± 0.13 kcal/mol | 4.05 ± 0.17 kcal/mol | 4.19 ± 0.13 kcal/mol |
| SAGTEEELVERAKELARELAEELGVEAEAEVTVDPLPDVLVVNLTVRLRLPGGETVELPLTLTFPREFLSAG [r5_609_TrMRF] | 2.71 ± 0.095 kcal/mol | 3.08 ± 0.05 kcal/mol | 3.3 ± 0.035 kcal/mol |
| SAGGGIVEKIKKIIKEAGYKAKVEESEDGIHIVVEAPIEAGKVLEKKIKEATGKEIKIEYVPPGKGASAGGS [r16_514_TrMRF] | 2.21 ± 0.19 kcal/mol | 3.25 ± 0.16 kcal/mol | 3.54 ± 0.25 kcal/mol |
| SAGEMVVLRIRVKVPVTEVKFDKETGELTVEKKTVTREITLTVPADSPEARELAEKLRELGFEVEVVEASAG [r5_468_TrROS_Hall] | 3.35 ± 0.14 kcal/mol | 3.43 ± 0.062 kcal/mol | 3.53 ± 0.042 kcal/mol |
| SAGGSATAEELAEEIAREIAEAFPAEVVRVEVEEVDEDRVVFRMEVRVPLPDGSTVRAPFTVVVPASAGGSA [r15_276_TrMRF] | 0.572 ± 0.042 kcal/mol | 0.693 ± 0.1 kcal/mol | 0.778 ± 0.14 kcal/mol |
| SAGGSAGGSAGSISRTATPDGYLYTFTDSSGKTHTIPSPVPGMPLSEVAERARAAGFSTVESSAGGSAGGSA [r18_83_JUSTAS] | -0.188 ± 0.12 kcal/mol | 0.618 ± 0.08 kcal/mol | 0.968 ± 0.065 kcal/mol |
| SAGGSAGGSASMTTLEIEIELDESDIEKVKEELKKELPKNVKVIIHAYDKNGNIIEEIEIEFSAGGSAGGSA [r18_188_JUSTAS] | 1.33 ± 0.036 kcal/mol | 1.6 ± 0.17 kcal/mol | 1.61 ± 0.097 kcal/mol |
| SAGGSAGGSAGGMKIKITVEVFDPNTGKVLKTEEFTSLEEAEKKVKEEDPNKVKVTVKEESAGGSAGGSAGG [r7_201_JUSTAS] | 0.805 ± 0.056 kcal/mol | 1.33 ± 0.077 kcal/mol | 1.71 ± 0.032 kcal/mol |
